Among the data in publication PMC10403255, “Two RNA-binding proteins mediate the sorting of miR223 from mitochondria into exosomes” are binding result, binding signal and Kd values, retold here.

What all share (test): EMSA; 25 mM Tris pH 8.0, 100 mM KCl, 1.5 mM MgCl2, 0.2 mM EGTA, 0.05% Nonidet P-40, 1 mM DTT, 5% glycerol, 50 ug/ml heparin; 30 C 30 min, then ice 10 min; 1 nM RNA; 6% native PAGE in cold room
In one data set the target is YBAP1 (UniProt Q07021 74-282). Conditions: protein: recombinant; tags: His6-MBP; chain copies: 3; label: 5'-IRD800CWN.
Sequence of YBAP1 (Q07021 74-282): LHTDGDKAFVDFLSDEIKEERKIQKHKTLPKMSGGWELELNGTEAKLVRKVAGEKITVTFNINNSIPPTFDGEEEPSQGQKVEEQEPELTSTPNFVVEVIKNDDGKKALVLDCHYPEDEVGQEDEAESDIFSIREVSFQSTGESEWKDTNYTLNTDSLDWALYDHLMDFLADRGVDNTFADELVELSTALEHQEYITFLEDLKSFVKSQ
Data set [1] has as its target T1, YBX1 (UniProt P67809 1-324). Conditions: protein: recombinant; tags: His6-MBP (N-terminal vector tag); label: 5'-IRD800CWN.
Data set [2] has as its target T1, YBX1. Conditions: protein: recombinant; tags: His6-MBP (N-terminal vector tag); label: 5'-IRD800CWN. This is another data set of the same source.
For data set [3], the target named is T1, YBX1. Conditions: protein: recombinant; tags: His6-MBP (N-terminal vector tag); label: 5'-IRD800CWN. This is another data set of the same source.
The next data set addresses YBX1(F85A) (UniProt P67809 1-324, F85A). Conditions: protein: recombinant; tags: His6-MBP; label: 5'-IRD800CWN.

T1 sequence (P67809 whole entry): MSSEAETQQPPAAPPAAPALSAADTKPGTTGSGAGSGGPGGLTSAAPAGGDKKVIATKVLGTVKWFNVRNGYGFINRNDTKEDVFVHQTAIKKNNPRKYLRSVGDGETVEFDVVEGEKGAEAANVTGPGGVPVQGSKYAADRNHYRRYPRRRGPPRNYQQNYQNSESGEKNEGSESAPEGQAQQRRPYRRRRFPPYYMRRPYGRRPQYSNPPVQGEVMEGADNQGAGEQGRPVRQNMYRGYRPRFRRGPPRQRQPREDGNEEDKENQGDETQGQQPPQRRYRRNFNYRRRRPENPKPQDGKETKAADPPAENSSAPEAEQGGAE
Sequence of YBX1(F85A) (P67809 whole entry F85A): as the sequence (P67809 whole entry) above, with F85A counted along it

Consider UGAUAUGUUUGAUAUAUUAGGU (ssRNA) [miR190 (hsa-miR-190-5p)], for which the binding result with YBAP1 is recorded as “no binding”. Further, the binding signal in the data set with YBX1 [1] is roughly 140 fold weaker than miR223.
Turning to UGUCAGUUUUGAUAUAUUAGGU (ssRNA) [miR190sort], the binding signal with YBX1 [2] is roughly 8 fold stronger than miR190.
The term Kd denotes the equilibrium constant for the complex coming apart. As for UGUCAGUUUGUCAAAUACCCCA (ssRNA) [miR223 (hsa-miR-223-3p)], the Kd in the data set with YBX1 [3] is 4.2 nM. The binding result with YBX1(F85A) is listed as “no binding”; in the data set with YBAP1, “binds”.
With UGAGACAUUGUCAAAUACCCCA (ssRNA) [miR223mut], the binding signal with YBX1 [2] was roughly 27 fold weaker than miR223.
